Fewer inactive variants are shown than the library holds.
B1: TPR 5TU (parent)
chain: GGAUCUUCUCGAUCUAACAAAAAAGACAAAUCUGCCACAAAGCUUGAGAGCAUCUUCGGAUGCAGAGGCGGCAGCCUUCGGUGGCGCGAUAGCGCCAACGUUCUCAACUAUGACACGCAAAACGCGUGCUCCGUUGAAUGGAGUUUAUCAUG

Variants of: B1
Experiment: polymerase ribozyme fitness, log enrichment relative to wild type (log ratio); higher = more active; in vitro selection for triplet polymerase activity
How it was run: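 After PCR construction and transcription, each subunit's mutant library from a heterodimeric triplet polymerase ribozyme was annealed with a biotinylated primer, the partner subunit and triplets. Incubation was frozen, at −7 °C, and extended constructs were gel-excised, bound to streptavidin beads and amplified by RT-PCR, in one selection round done in triplicate. Fitness is the logarithm of a genotype's enrichment divided by that of the wild type, from inverse-variance-weighted replicate averages of Illumina-sequenced inputs and outputs. The base of the logarithm is 2, and genotypes needed ≥10 input reads and ≥1 read per output.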

Variant | polymerase ribozyme fitness (log ratio)
A28C G83C G128U | ≤ -4.2
A28C A30U A60C C75A C76U C93A C95G | ≤ -4.2
C27U G92C U146C U151G | ≤ -4.2
C27A C36U C87G G126C C149U | ≤ -4.2
C27U C57A C87A A115U | ≤ -4.2
C27U G58A C96U C116U C118G U144G | -0.836
C27U G86A | -2.94
C27U C93U U104A | -3.11
C27A A106C A113U C125A | ≤ -4.2
A28C C69U | ≤ -4.2
C27U U33G C95U | -3.46
A28C U31G A41U G65A C85G G88U C96U C103U U135G | ≤ -4.2
A28G G42U | ≤ -4.2
A28C G42C C76G C79G G86C U90G A97G U145C | ≤ -4.2
C27A C54G C105U | ≤ -4.2
A28G U44G A91U C99U | ≤ -4.2
C27G A29G C95U | ≤ -4.2
C27A C75U C93G A115U | ≤ -4.2
A28G A29U C43G A47C G84U A110U | ≤ -4.2
A28C G84A G94U C96G C108G U139C G143C | ≤ -4.2
A26U G86A | -2.74

Variant | polymerase ribozyme fitness (log ratio)
C27U G84A | -1.66
C27A C38G C43U C85U G133A U144C | ≤ -4.2
A28C C32U A52U U53G C93A G112C G143U | ≤ -4.2
A28G G50C G81C C95G C96U A98C A113U G143U | ≤ -4.2
C27U C85A | -2.04
C27U C85U | -2.83
C27G C54A C93A A115U | ≤ -4.2
A28C | -3.75
A28G | -2.24
C27U G62A A97U A98C | -3.33
A26U G92C | -3.52
C27G A37G C72A C105A | -4.13
A28C A39U C103U C116G U139G | ≤ -4.2
A28G A52C U55C C63A C87U A91U | ≤ -4.2
C27G G92C A142U | ≤ -4.2
C27U U55A G58C C87U U111C A142U | -4.19
C27U A52C A60U C76U G84U C96G U109C | ≤ -4.2
C27G A29C C51A A73U G83A A97U U151A | ≤ -4.2
A28G C79G C85U A115C U151A | ≤ -4.2
A28C C57U G59A U78G G86A A115U | ≤ -4.2
C27U A47C U56G C76U U78A G94A A97U C118U | ≤ -4.2

Variant | polymerase ribozyme fitness (log ratio)
A28G C32U G86C A115G U144G | ≤ -4.2
A28C C43U U56A A107C | ≤ -4.2
C27A A37U G42C A106C C116G A121G G128A U145G | ≤ -4.2
C27U U61G A64U C96U | ≤ -4.2
A28C G46C G84A C85U C96U C116U C149U | ≤ -4.2
C27G A41C C54G C87G C114G C125A | ≤ -4.2
C27G A66G C87U U109A A113U | ≤ -4.2
C27U C43A A97U A150G | ≤ -4.2
C27G G80A C114A C116U A142C | ≤ -4.2
C27G U55A | -3.74
C27A G34U U53A G71C G88U C96U U144A U146A | ≤ -4.2
A28G C54U C93A U127A | ≤ -4.2
A28C A30C A41U C57U A107C | ≤ -4.2
A28C U78G C96G U148G | ≤ -4.2
C27A U45A C87U A138C | ≤ -4.2
A28C C87G G117C A137U | ≤ -4.2
C27A U56A A60U A122C U144A | ≤ -4.2
C27G C96U A106G | -4
A28C U56A C57A G68A C76A G88U G94A A138C | ≤ -4.2
C27U C57A A66C G71A C96A U130A | ≤ -4.2
C27G U56A | -3.69

Variant | polymerase ribozyme fitness (log ratio)
C27U A37U C99G | -3.64
C27A G117A | -3.86
C27U U31C A52C U78C U101A C125G | ≤ -4.2
A28G U56A | -3.7
A28G A30U C32A C85A C95U A115U | ≤ -4.2
A26U G80A A98C U101G | -3.73
C27U G86A U145A G152A | ≤ -4.2
A28G A52U G84A C103A | ≤ -4.2
C27U C75A G81A G92A U135A | ≤ -4.2
A28G U53G C85A U104G A106G A138U A147G | ≤ -4.2
C27U G92U | -1.78
C27G C43U C75G U78G C129G G143A | ≤ -4.2
C27U G59A G67C G86C C99U | ≤ -4.2
A28C U151A | ≤ -4.2
C27U G70A C87A | ≤ -4.2
A28C G80C U82G G88C U130C | ≤ -4.2
A26U G141U | -1.94
A28C U31G C125G | ≤ -4.2
A28G A60C C76G | ≤ -4.2
A28G U55G G58C G88C G140U | ≤ -4.2
A26U G62A | -1.51

— the RNAGym collection of RNA variant scans (doi:10.1073/pnas.2313332121)
